Data reported in FireProtDB (doi:10.1021/bi027116n).
Several values for one entry are separate records, joined by “and”; a condition that tells them apart may be missing. Identical values can stand only once.

Conditions: Spinacia oleracea, reversible: no; for denaturant midpoint (higher = more stable): 20 °C, GdnHCl; for Tm: Thermal

Chain of Ferredoxin-1, chloroplastic wild type, P00221 (P00221 whole entry): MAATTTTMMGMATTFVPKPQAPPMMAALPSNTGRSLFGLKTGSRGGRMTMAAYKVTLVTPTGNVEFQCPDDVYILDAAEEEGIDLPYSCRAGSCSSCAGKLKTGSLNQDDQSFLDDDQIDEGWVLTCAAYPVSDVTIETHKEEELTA

Substance: Ferredoxin-1, chloroplastic wild type, P00221
- denaturant midpoint (higher = more stable) (pH 7, Absorbance, phosphate): 2.1 M and 1.7 M and 1.5 M
- denaturant midpoint (higher = more stable) (pH 7, CD, phosphate): 2.1 M and 1.6 M
- denaturant midpoint (higher = more stable) (pH 7, Emission, phosphate): 1.6 M
- Tm (pH 7, Absorbance, Phosphate): 70 °C
- denaturant midpoint (higher = more stable) (pH 10, Absorbance, Glycine-OH): 3 M and 1.5 M
- denaturant midpoint (higher = more stable) (pH 10, CD, Glycine-OH): 1.6 M
- denaturant midpoint (higher = more stable) (pH 10, Emission, Glycine-OH): 1.6 M
- Tm (pH 10, Absorbance, Glycine-OH): 53 °C
